pKd: −log10 of the molar value.

The target in the data set is T1, NgAgo (engineered Natronobacterium gregoryi Argonaute) (Natronobacterium gregoryi) (UniProt L0AJX6).
T1 sequence: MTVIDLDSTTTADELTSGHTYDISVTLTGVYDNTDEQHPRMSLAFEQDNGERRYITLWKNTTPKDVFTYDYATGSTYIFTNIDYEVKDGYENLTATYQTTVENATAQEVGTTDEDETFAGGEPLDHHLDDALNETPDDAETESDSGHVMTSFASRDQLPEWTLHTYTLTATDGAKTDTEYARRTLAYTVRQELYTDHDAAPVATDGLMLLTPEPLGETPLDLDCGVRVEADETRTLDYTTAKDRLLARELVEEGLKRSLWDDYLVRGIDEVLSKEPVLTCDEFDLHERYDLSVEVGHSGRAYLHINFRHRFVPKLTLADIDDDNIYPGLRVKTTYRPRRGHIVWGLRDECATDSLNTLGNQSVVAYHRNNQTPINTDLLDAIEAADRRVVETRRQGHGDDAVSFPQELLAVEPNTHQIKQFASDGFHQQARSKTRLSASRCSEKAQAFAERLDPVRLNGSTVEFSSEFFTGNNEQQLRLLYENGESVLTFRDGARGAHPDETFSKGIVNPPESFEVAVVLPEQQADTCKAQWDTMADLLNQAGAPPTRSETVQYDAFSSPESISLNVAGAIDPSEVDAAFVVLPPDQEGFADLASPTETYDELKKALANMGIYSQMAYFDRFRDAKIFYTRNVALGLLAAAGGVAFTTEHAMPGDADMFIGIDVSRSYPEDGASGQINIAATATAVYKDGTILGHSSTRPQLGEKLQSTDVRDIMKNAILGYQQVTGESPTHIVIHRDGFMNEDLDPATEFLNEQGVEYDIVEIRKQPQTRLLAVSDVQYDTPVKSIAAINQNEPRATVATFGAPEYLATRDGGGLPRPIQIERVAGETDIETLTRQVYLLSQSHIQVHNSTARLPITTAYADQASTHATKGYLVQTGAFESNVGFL
Kind of data set: SPR. To be noted: 5'-phosphate on guide; SPR: 10 mM HEPES, 150 mM NaCl, 3 mM EDTA, pH 7.4, 0.005% Tween-20, temperature not stated; EMSA: 2% agarose, 1x TAE, 100 V. (In EMSA bound probe runs differently from free probe, usually more slowly.)

One may read the pKd as −log10 of the Kd, conventionally taken in molar units. The sequence “TAAACCCAAAGAATGTCTGAGGGG / CCCTCCTTTTGTAAACAATGCATTCATCGACCTTCCAGCCGGGGTTGGTTCTGCCCCTCTCTCTGTCCTTCAGAGGAACCAGGGACCTCGGGCACCCCAGAGCCCCTCGGGCCCGCCTCCAGGCGCCCTCCTGGTCTCCGCTCCCCTCTGAGCCCCGTTAAACCCAAAGAATGTCTGAGGGGAGCCACCCTCGGGGCCCAGGCCCCAGAGTCACAC / CCCCTCAGACATTCTTTGGGTTTA [g3 guide / EBV cfDNA SPR amplicon]” had a pKd of 8.26.

The values are drawn from paper PMC10908814.
